# In the RNAGym collection of RNA variant scans (doi:10.7554/elife.90254):
# B1: OR4K15 (parent)
# chain: GUUAACGGUCAUAGGCCAUGGAAACUAGGAGCACCAUUUCGCUGCCAGUGAAGAAAUGAACAAAGAAAAUCUGGGCCAGGCAGGCAUCAAAAGAAAUAGUCUUGCGCUCAACCAGAAAGUCUGUAAUCAUUUUAAGGGUA
# Variants of: B1
# Experiment: self-cleavage, relative activity (ratio to wild type); higher = more cleavage; in vitro, sequencing; the parent is a self-cleaving ribozyme
row,Variant,self-cleavage
1,GUUAACGGUCAUAGGCCAUGGAAACUAGGAGCACCAUUUCGCUGCCAGAGAAGAAAUGAACAAAGAAAAUCUGGGCCAGGCAGGCAUCAAAAGAAAUAGUCUUGCGCUCAACCAGAAAGUCUGUAAUCAUUCUAAGGGUA,1.09
2,GUUAACGGUCAUAGGCCAUGGAAACUAGGAGCACCAUUUCGCUGCCAGCGAAGAAAUGAACAAAGAAGAUCUGGGCCAGGCAGGCAUCAAAAGAAAUAGUCUUGCGCUCAACCAGAAAGUCUGUAAUCAUUUUAAGGGUA,1.55
3,GUUAACGGUCAUAGGCCAUGGAAACUAGGAGCACCAUUUCGCUGCCAGAGAAGAAAUGAACAAAGAAAAUCUGGGCCAGGCAGGCAUCAAAAGAAAUAGUCUUGCGCUCAACCAGAAAGUCUGUAAUCAUGUUAAGGGUA,1.06
4,GUUAACGGUCAUAGGCCAUGGAAACUAGGAGCACCAUUUCGCUGCCAGCGAAGAAAUGAACUAAGAAAAUCUGGGCCAGGCAGGCAUCAAAAGAAAUAGUCUUGCGCUCAACCAGAAAGUCUGUAAUCAUUUUAAGGGUA,0.68
5,GUUAACGGUCAUAGGCCAUGGAAACUAGGAGCACCAUUUCGCUGCCAGCGAAGAAAUGAACAAAGAAAAUCUGGGCCAGGCAGGCAUCAAAAGUAAUAGUCUUGCGCUCAACCAGAAAGUCUGUAAUCAUUUUAAGGGUA,1.36
6,GUUAACGGUCAUAGGCCAUGGAAACUAGGAGCACCAUUUCGCUGCCAGCGAUGAAAUGAACAAAGAAAAUCUGGGCCAGGCAGGCAUCAAAAGAAAUAGUCUUGCGCUCAACCAGAAAGUCUGUAAUCAUUUUAAGGGUA,1.38
7,GUUAACGGUCAUAGGCCAUGGAAACUAGGAGCACCAUUUCGCUGCCAGCGAAGAAAUGAACAAAGAAAAUCUGGGCCAGGCAGGCAUCAAAAGAAAUAGUCUUGCGCUCAACCAGAAAGUCUGUAAUCUUUUUAAGGGUA,0.92
8,GUUAACGGUCAUAGGCCAUGGAAACUAGGAGCACCAUUUCGCUGCCAGAGAAGAAAUGAACAAAGAAAAUCUGGGCCAGGCAGGCAUCAAAAGAAAUAGUCUUGCGCUCAACCAGAAAGUCUGUAAGCAUUUUAAGGGUA,1.97
9,GUUAACGGUCAUAGGCCAUGGAAACUAGGAGCACCAUUUCGCUGCCAGAGAAGAAAUGAACAAAGAAAAUCUGGGCCAGGCAGGCAUCAAAAGAAAUAGUCUUGCGCUCAACCAGAAAGUCUGUAACCAUUUUAAGGGUA,0.38
10,GUUAACGGUCAUAGGCCAUGGAAACUAGGAGCACCAUUUCGCUGCCAGCGAAGAAAUGAACAAAGAAAAUCUGGGCCUGGCAGGCAUCAAAAGAAAUAGUCUUGCGCUCAACCAGAAAGUCUGUAAUCAUUUUAAGGGUA,0.37
11,GUUAACGGUCAUAGGCCAUGGAAACUAGGAGCACCAUUUCGCUGCCAGCGAAGAAAUGAACAAAGAAAAUCUGGGCCCGGCAGGCAUCAAAAGAAAUAGUCUUGCGCUCAACCAGAAAGUCUGUAAUCAUUUUAAGGGUA,0.43
12,GUUAACGGUCAUAGGCCAUGGAAACUAGGAGCACCAUUUCGCUGCCAGCGAAGAAAUGAACAAAGAAAAUCUGGGCCGGGCAGGCAUCAAAAGAAAUAGUCUUGCGCUCAACCAGAAAGUCUGUAAUCAUUUUAAGGGUA,0.2
13,GUUAACGGUCAUAGGCCAUGGAAACUAGGAGCACCAUUUCGCUGCCAGCGAAGAAAUGAACAAAGAAAAUCUGGGCCAGGCAGGCAUCAAAUGAAAUAGUCUUGCGCUCAACCAGAAAGUCUGUAAUCAUUUUAAGGGUA,1.42
14,GUUAACGGUCAUAGGCCAUGGAAACUAGGAGCACCAUUUCGCUGCCAGCGAAGAAAUGAACAAAGAAAAUCUGGGCCAGGCAGGCAUCAAAGGAAAUAGUCUUGCGCUCAACCAGAAAGUCUGUAAUCAUUUUAAGGGUA,1.47
15,GUUAACGGUCAUAGGCCAUGGAAACUAGGAGCACCAUUUCGCUGCCAGAGAAGAAAUGAACAAAGAAAAUCUGGGCCAGGCAGGCAUCAAAAGAAAUAGUCUUGCGCUCAACCAGAAAGUCUGAAAUCAUUUUAAGGGUA,0.56
16,GUUAACGGUCAUAGGCCAUGGAAACUAGGAGCACCAUUUCGCUGCCAGCGAAGAGAUGAACAAAGAAAAUCUGGGCCAGGCAGGCAUCAAAAGAAAUAGUCUUGCGCUCAACCAGAAAGUCUGUAAUCAUUUUAAGGGUA,1.22
17,GUUAACGGUCAUAGGCCAUGGAAACUAGGAGCACCAUUUCGCUGCCAGCGAAGAAAUGAACAAAGAAAAUCUGGGCCAGGCAGGCAUCAAAAGAAAUAGUCUUGCGCUCAACCUGAAAGUCUGUAAUCAUUUUAAGGGUA,0.12
18,GUUAACGGUCAUAGGCCAUGGAAACUAGGAGCACCAUUUCGCUGCCAGAGAAGAAAUGAACAAAGAAAAUCUGGGCCAGGCAGGCAUCAAAAGAAAUAGUCUGGCGCUCAACCAGAAAGUCUGUAAUCAUUUUAAGGGUA,0.01
19,GUUAACGGUCAUAGGCCAUGGAAACUAGGAGCACCAUUUCGCUGCCAGAGAAGAAAUGAACAAAGAAAAUCUGGGCCAGGCAGGCAUCAAAAGAAAUAGUCUCGCGCUCAACCAGAAAGUCUGUAAUCAUUUUAAGGGUA,0.93
20,GUUAACGGUCAUAGGCCAUGGAAACUAGGAGCACCAUUUCGCUGCCAGCGAAGAAAUGAACAAAGAAAAUCUGGGCCAGGCAGGCAUCAAAAGAAAUAGUCUUGCGCUCGACCAGAAAGUCUGUAAUCAUUUUAAGGGUA,0.12
21,GUUAACGGUCAUAGGCCAUGGAAACUAGGAGCACCAUUUCGCUGCCAGAGAAGAAAUGAACAAAGAAAAUCUGGGCCAGGCAGGCAUCAAAAGAAAUAGUCUUGCGCUCAACCAGAAAGUCUGUAAUCACUUUAAGGGUA,1.53

row,Variant,self-cleavage
1,GUUAACGGUCAUAGGCCAUGGAAACUAGGAGCACCAUUUCGCUGCCAGCGAAGAAAUGAACAAAGAAAUUCUGGGCCAGGCAGGCAUCAAAAGAAAUAGUCUUGCGCUCAACCAGAAAGUCUGUAAUCAUUUUAAGGGUA,2
2,GUUAACGGUCAUAGGCCAUGGAAACUAGGAGCACCAUUUCGCUGCCAGCGAAGAAAUGAACAAAGAAAGUCUGGGCCAGGCAGGCAUCAAAAGAAAUAGUCUUGCGCUCAACCAGAAAGUCUGUAAUCAUUUUAAGGGUA,1.2
3,GUUAACGGUCAUAGGCCAUGGAAACUAGGAGCACCAUUUCGCUGCCAGCGAAGAAAUGAACAAAGAAAAUCUGGGCCAGGCAGGCAUCAAAAGAAUUAGUCUUGCGCUCAACCAGAAAGUCUGUAAUCAUUUUAAGGGUA,1.92
4,GUUAACGGUCAUAGGCCAUGGAAACUAGGAGCACCAUUUCGCUGCCAGCGAAGAAAUGAACAAAGAAAAUCUGGGCCAGGCAGGCAUCAAAAGAAGUAGUCUUGCGCUCAACCAGAAAGUCUGUAAUCAUUUUAAGGGUA,1
5,GUUAACGGUCAUAGGCCAUGGAAACUAGGAGCACCAUUUCGCUGCCAGCGAAGAAAUGAACAAAGAAAAUCUGGGCCAGGCAGGCAUCUAAAGAAAUAGUCUUGCGCUCAACCAGAAAGUCUGUAAUCAUUUUAAGGGUA,2.12
6,GUUAACGGUCAUAGGCCAUGGAAACUAGGAGCACCAUUUCGCUGCCAGCGAAGAAAUGAACAAAGAAAAUCUGGGCCAGGCAGGCCUCAAAAGAAAUAGUCUUGCGCUCAACCAGAAAGUCUGUAAUCAUUUUAAGGGUA,0.78
7,GUUAACGGUCAUAGGCCAUGGAAACUAGGAGCACCAUUUCGCUGCCAGAGAAGAAAUGAACAAAGAAAAUCUGGGCCAGGCAGGCAUCAAAAGAAAUAGUCUUGCGCUCAACCAGAAAGCCUGUAAUCAUUUUAAGGGUA,0.84
8,GUUAACGGUCAUAGGCCAUGGAAACUAGGAGCACCAUUUCGCUGCCAGCGAAGAAAUGAACAAAGUAAAUCUGGGCCAGGCAGGCAUCAAAAGAAAUAGUCUUGCGCUCAACCAGAAAGUCUGUAAUCAUUUUAAGGGUA,1.39
9,GUUAACGGUCAUAGGCCAUGGAAACUAGGAGCACCAUUUCGCUGCCAGCGAAGUAAUGAACAAAGAAAAUCUGGGCCAGGCAGGCAUCAAAAGAAAUAGUCUUGCGCUCAACCAGAAAGUCUGUAAUCAUUUUAAGGGUA,0.94
10,GUUAACGGUCAUAGGCCAUGGAAACUAGGAGCACCAUUUCGCUGCCAGCGAAGGAAUGAACAAAGAAAAUCUGGGCCAGGCAGGCAUCAAAAGAAAUAGUCUUGCGCUCAACCAGAAAGUCUGUAAUCAUUUUAAGGGUA,1.19
11,GUUAACGGUCAUAGGCCAUGGAAACUAGGAGCACCAUUUCGCUGCCAGCGAAGAAAUGAACAAAGAAAAUCUGGGCCAGGCAGGCAUCACAAGAAAUAGUCUUGCGCUCAACCAGAAAGUCUGUAAUCAUUUUAAGGGUA,0.97
12,GUUAACGGUCAUAGGCCAUGGAAACUAGGAGCACCAUUUCGCUGCCAGCGAAGAAAUGAACAAAGAAAAUCUGGGCCAGGCAGGCAUCAAAAGAAAUAGUCUUGCGCUCAACCAGAUAGUCUGUAAUCAUUUUAAGGGUA,1.08
13,GUUAACGGUCAUAGGCCAUGGAAACUAGGAGCACCAUUUCGCUGCCAGCGAAGAAAUGAACAAAGAAAAUCUGGGCCAGGCAGGCAUCAAAAGAAAUAGUCUUGCGCUCAACCAGAGAGUCUGUAAUCAUUUUAAGGGUA,1.68
14,GUUAACGGUCAUAGGCCAUGGAAACUAGGAGCACCAUUUCGCUGCCAGCGAAGAAAUGAACAAAGAAAAUCUGGGCCAGGCAGGCAUCAAAAGAAAUUGUCUUGCGCUCAACCAGAAAGUCUGUAAUCAUUUUAAGGGUA,2.55
15,GUUAACGGUCAUAGGCCAUGGAAACUAGGAGCACCAUUUCGCUGCCAGCGAAGAAAUGAACAAAGAAAAUCUGGGCCAGGCAGGCAUCAAAAGAAAUGGUCUUGCGCUCAACCAGAAAGUCUGUAAUCAUUUUAAGGGUA,0.48
16,GUUAACGGUCAUAGGCCAUGGAAACUAGGAGCACCAUUUCGCUGCCAGCGAAGAAAUGAACAAAGAAAAUCUGGGCCAGGCAGGCAUCAAAAGAAAUCGUCUUGCGCUCAACCAGAAAGUCUGUAAUCAUUUUAAGGGUA,1.84
17,GUUAACGGUCAUAGGCCAUGGAAACUAGGAGCACCAUUUCGCUGCCAGCGAAGAAAUGAACAAAGAAAAUCUGGGCCAGGCAGGCAUCAAAAGAAAUAGUCUUGCGCUCAACCAGGAAGUCUGUAAUCAUUUUAAGGGUA,0.82
18,GUUAACGGUCAUAGGCCAUGGAAACUAGGAGCACCAUUUCGCUGCCAGCGAAGAAAUGAACAAAGAAAAUCUGGGCCAGGCAGGCAUCAAAAGAAAUAGUCUUGCGCUCAACCAGAAAGUCUGUGAUCAUUUUAAGGGUA,0.7
19,GUUAACGGUCAUAGGCCAUGGAAACUAGGAGCACCAUUUCGCUGCCAGCGAAGAAAUGAACAAAGAAAAUCUGGGCCAGGCAGGCAUCAAGAGAAAUAGUCUUGCGCUCAACCAGAAAGUCUGUAAUCAUUUUAAGGGUA,0.77
20,GUUAACGGUCAUAGGCCAUGGAAACUAGGAGCACCAUUUCGCUGCCAGCGAAGAAAUGAACAAAGAAAAUCUGGGCCAGGCAGGCAUCAAUAGAAAUAGUCUUGCGCUCAACCAGAAAGUCUGUAAUCAUUUUAAGGGUA,1.68
